Measurements: article PMC4220976, “Small-angle neutron scattering reveals the assembly mode and oligomeric architecture of TET, a large, dodecameric aminopeptidase” (Acta Crystallographica Section D: Biological Crystallography, 2014)

B1: Pyrococcus horikoshii TET3 aminopeptidase (PhTET3), hydrogenated (enzyme)
chain: MDLKGGESMVDWKLMQEIIEAPGVSGYEHLGIRDIVVDVLKEVADEVKVDKLGNVIAHFKGSSPRIMVAAHMDKIGVMVNHIDKDGYLHIVPIGGVLPETLVAQRIRFFTEKGERYGVVGVLPPHLRRGQEDKGSKIDWDQIVVDVGASSKEEAEEMGFRVGTVGEFAPNFTRLNEHRFATPYLDDRICLYAMIEAARQLGDHEADIYIVGSVQEEVGLRGARVASYAINPEVGIAMDVTFAKQPHDKGKIVPELGKGPVMDVGPNINPKLRAFADEVAKKYEIPLQVEPSPRPTGTDANVMQINREGVATAVLSIPIRYMHSQVELADARDVDNTIKLAKALLEELKPMDFTP
notes: PhTET3, lysyl-aminopeptidase of the M42 family, Pyrococcus horikoshii; It was studied as a dimer (de-oligomerization buffer) and as a dodecamer; also called hPhTET3; hPhTET3 12s; source: E. coli, purified (heating at 85°C, Resource Q, Superose 6; as described by Durá et al., 2009)

What was measured:
[1] = biological target: the molecule itself; assay: small-angle neutron scattering (SANS) with contrast variation; peak 1 (particle 1) heterododecamer of dPhTET2 and hPhTET3; 4.5 mg/ml; 20 mM Tris-HCl, 150 mM NaCl pH 7.5; 0, 42, 70 and 100% D2O; 20 to 80°C; mass calibrated against water; models scored with CRYSON
[2] = biological target: B1; assay: as above; conditions: both partners purified
[3] = biological target: the molecule itself; assay: small-angle neutron scattering (SANS); homododecameric reference samples: dPhTET2 12s in 42% D2O and hPhTET3 12s in 100% D2O; 20 mM Tris-HCl, 150 mM NaCl pH 7.5; 20°C
[4] = biological target: B1; assay: small-angle neutron scattering (SANS) with contrast variation; peak 2 (particle 2) heterododecamer of dPhTET2 and hPhTET3; 4.5 mg/ml; 20 mM Tris-HCl, 150 mM NaCl pH 7.5; 0, 49, 70 and 100% D2O; 20 to 80°C; mass calibrated against water; models scored with CRYSON; conditions: both partners purified
[5] = biological target: the molecule itself; assay: SEC; Superose 6 (native polyacrylamide gels also run) after dialysis of the dodecamers against de-oligomerization buffer: 50 mM CAPS, 20 mM NaCl, 20 mM EDTA pH 10
[6] = biological target: the molecule itself; assay: small-angle neutron scattering (SANS); 1:1 mixtures of preformed homododecameric deuterated and hydrogenated PhTET2 (wild type or pentamutant) in 42% or 100% D2O; temperature raised from 20 to 80°C, 4 h at each temperature
[7] = biological target: the molecule itself; assay: small-angle neutron scattering (SANS) with contrast variation; peak 2 (particle 2) heterododecamer of dPhTET2 and hPhTET3; 4.5 mg/ml; 20 mM Tris-HCl, 150 mM NaCl pH 7.5; 0, 49, 70 and 100% D2O; 20 to 80°C; mass calibrated against water; models scored with CRYSON

| stoichiometry N [2] | stoichiometry N [4] | Binder | stoichiometry N [1] | stoichiometry N [3] | stoichiometry N [5] | stoichiometry N [6] | stoichiometry N [7] |
| --- | --- | --- | --- | --- | --- | --- | --- |
| 1 dPhTET2:hPhTET3 (6:6) | 2 dPhTET2:hPhTET3 (8:4) | Pyrococcus horikoshii TET2 aminopeptidase (PhTET2), wild type (enzyme, dPhTET2: random-fractional deuteration, final level approximately 75%; hPhTET2: hydrogenated, PhTET2, leucyl-aminopeptidase of the M42 family, Pyrococcus horikoshii; It was studied as a dimer (de-oligomerization buffer) and as a dodecamer; The preparation of hPhTET2 is not described separately; also called dPhTET2; hPhTET2; source: E. coli, purified (heating at 85°C, Resource Q, Superose 6); dPhTET2 grown in minimal medium with 85% D2O) MEVRNMVDYELLKKVVEAPGVSGYEFLGIRDVVIEEIKDYVDEVKVDKLGNVIAHKKGEGPKVMIAAHMDQIGLMVTHIEKNGFLRVAPIGGVDPKTLIAQRFKVWIDKGKFIYGVGASVPPHIQKPEDRKKAPDWDQIFIDIGAESKEEAEDMGVKIGTVITWDGRLERLGKHRFVSIAFDDRIAVYTILEVAKQLKDAKADVYFVATVQEEVGLRGARTSAFGIEPDYGFAIDVTIAADIPGTPEHKQVTHLGKGTAIKIMDRSVICHPTIVRWLEELAKKHEIPYQLEILLGGGTDAGAIHLTKAGVPTGALSVPARYIHSNTEVVDERDVDATVELMTKALENIHELKI | 6 | 12 | 2 | – | – |
| – | – | PhTET2 pentamutant (R217S, R220S, F224S, H248S and I292A) (enzyme, Pyrococcus horikoshii, deuterated form: random-fractional deuteration, final level approximately 75%; a hydrogenated form was also used, PhTET2, leucyl-aminopeptidase of the M42 family, Pyrococcus horikoshii, with five mutations at the interface between the dimers; The mutant was designed in Appolaire et al. (2013) to slow the oligomerization process; Its deuterated and hydrogenated preparations are kept as one molecule; also called pentamutant PhTET2; mutated PhTET2; source: E. coli, purified (heating at 85°C, Resource Q, …)) MEVRNMVDYELLKKVVEAPGVSGYEFLGIRDVVIEEIKDYVDEVKVDKLGNVIAHKKGEGPKVMIAAHMDQIGLMVTHIEKNGFLRVAPIGGVDPKTLIAQRFKVWIDKGKFIYGVGASVPPHIQKPEDRKKAPDWDQIFIDIGAESKEEAEDMGVKIGTVITWDGRLERLGKHRFVSIAFDDRIAVYTILEVAKQLKDAKADVYFVATVQEEVGLSGASTSASGIEPDYGFAIDVTIAADIPGTPESKQVTHLGKGTAIKIMDRSVICHPTIVRWLEELAKKHEIPYQLEALLGGGTDAGAIHLTKAGVPTGALSVPARYIHSNTEVVDERDVDATVELMTKALENIHELKI | – | – | – | 12 | – |
| – | – | B1 | 6 | 12 | – | – | 2 |
